The values below come from patent US20250090699A1, “FAP TARGETING CYCLIC PEPTIDES AND CONJUGATES THEREOF” (Novartis AG, priority 2023, published 2025).

For one experiment, the target named is T1, human FAP (Homo sapiens, UniProt Q12884).
T1 construct: the biotinylated His, Avi tag, human FAP (26-760, FAP-H82Q6); His; Avi tag (biotinylated); purchased AcroBiosystems FAP-H82Q6
T1 sequence (Q12884 26-760): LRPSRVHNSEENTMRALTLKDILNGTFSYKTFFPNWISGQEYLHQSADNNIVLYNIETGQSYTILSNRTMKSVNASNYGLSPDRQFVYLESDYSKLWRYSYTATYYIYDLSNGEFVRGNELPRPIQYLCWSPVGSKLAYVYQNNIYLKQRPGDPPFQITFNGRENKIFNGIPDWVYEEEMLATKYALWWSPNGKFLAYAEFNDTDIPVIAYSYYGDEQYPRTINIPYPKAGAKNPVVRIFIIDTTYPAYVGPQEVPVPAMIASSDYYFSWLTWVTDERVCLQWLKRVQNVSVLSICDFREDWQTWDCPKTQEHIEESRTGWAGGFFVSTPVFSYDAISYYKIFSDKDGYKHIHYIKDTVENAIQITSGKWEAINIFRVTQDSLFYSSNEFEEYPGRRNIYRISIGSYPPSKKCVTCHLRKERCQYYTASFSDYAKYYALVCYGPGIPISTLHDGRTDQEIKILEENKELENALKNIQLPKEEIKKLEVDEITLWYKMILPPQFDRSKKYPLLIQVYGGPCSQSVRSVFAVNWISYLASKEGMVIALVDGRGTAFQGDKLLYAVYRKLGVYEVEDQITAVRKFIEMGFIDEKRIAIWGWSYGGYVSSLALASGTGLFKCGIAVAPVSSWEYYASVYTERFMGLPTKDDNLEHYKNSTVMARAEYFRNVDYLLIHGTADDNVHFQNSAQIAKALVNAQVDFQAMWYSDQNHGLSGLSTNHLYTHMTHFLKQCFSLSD
The experiment is described as follows: Enzymatic FAP competition assay (Z-Gly-Pro-AMC fluorescence), human FAP. The format is biochemical. To be noted: read-out: h. FAP, Enz., IC50. The protocol: (§1) Peptide potencies (IC50) to inhibit the FAP enzymatic activity were determined using a fluorescence-based assay towards the biotinylated His, Avi tag, human FAP (26-760, FAP-H82Q6) and the biotinylated His, Avi tag, mouse FAP (26-761, FAP-M82Q5). Standard assay conditions consisted of 20 μL total volume in white 384-well plates (Greiner, Ref. 784075), in 50 mM phosphate buffer pH 7.5 containing 150 mM NaCl, 0.05% Tween20 and 1% final DMSO. Tested peptides at 14 different concentrations up to 1 μM were added to 0.01 nM human or mouse FAP. The peptides were incubated for 24 hours together with the protein before adding the substrate 50 μM Z-Gly-Pro-AMC (I-1145 from Bachem). Samples were then incubated at 22-24° C. for 4 h before reading the fluorescence at excitation wavelength of 380 nm and emission wavelength of 460 nm using the Tecan Infinite® M1000 PRO. The high control (100% activity) was not containing any peptide, and an internal potent peptide was added at 10 μM concentration for the low control (100% inhibition). IC50 values were calculated by curve fitting using an in-house developed software (Novartis Helios software application) using the method described by Fomenko et al., 2006 (regression algorithms for nonlinear dose-response curve fitting). Following normalization of activity values for the wells to % inhibition (% inhibition=[(high control-sample)/(high control-low control)]x 100). IC50 fitting was carried out from the duplicated points.

Experiment [1] addresses T2, mouse FAP (Mus musculus, UniProt P97321).
T2 construct: biotinylated His, Avi tag, mouse FAP (26-761, FAP-M82Q5); His; Avi tag (biotinylated); purchased AcroBiosystems FAP-M82Q5
T2 sequence (P97321 26-761): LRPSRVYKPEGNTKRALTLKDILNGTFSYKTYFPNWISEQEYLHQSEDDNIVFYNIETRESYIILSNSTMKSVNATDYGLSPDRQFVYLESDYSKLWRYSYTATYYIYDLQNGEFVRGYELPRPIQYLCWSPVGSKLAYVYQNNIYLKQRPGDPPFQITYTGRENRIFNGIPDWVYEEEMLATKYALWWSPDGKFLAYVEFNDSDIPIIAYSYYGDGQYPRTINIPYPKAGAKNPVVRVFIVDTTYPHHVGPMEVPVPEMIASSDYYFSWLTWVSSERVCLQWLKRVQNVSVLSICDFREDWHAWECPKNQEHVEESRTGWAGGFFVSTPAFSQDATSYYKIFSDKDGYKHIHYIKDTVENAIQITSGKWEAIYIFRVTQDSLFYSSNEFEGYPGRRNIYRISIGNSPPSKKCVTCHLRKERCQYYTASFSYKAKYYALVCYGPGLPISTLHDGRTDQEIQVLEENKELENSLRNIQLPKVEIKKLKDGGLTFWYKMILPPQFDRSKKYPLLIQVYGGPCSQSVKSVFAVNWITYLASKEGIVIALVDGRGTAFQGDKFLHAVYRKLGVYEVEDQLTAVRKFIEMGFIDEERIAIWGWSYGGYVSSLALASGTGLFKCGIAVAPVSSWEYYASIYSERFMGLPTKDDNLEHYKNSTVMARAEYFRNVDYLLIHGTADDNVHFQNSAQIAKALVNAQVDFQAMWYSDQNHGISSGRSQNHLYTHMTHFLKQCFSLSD
The experiment is described as follows: Surface plasmon resonance (SPR) for peptide affinity, mouse FAP. The format is binding. Here is the method: Peptide affinities (KD) were determined by SPR using a Biacore™ 8K device (Cytiva) towards the following proteins: biotinylated His, Avi tag, human FAP (26-760, FAP-H82Q6), biotinylated His, Avi tag, mouse FAP (26-761, FAP-M82Q5), His tag, human DPP4 (34-766, DP4-H82E3), all purchased from AcroBiosystems and His tag, mouse DPP4 (29-760, 954-SE) from R&D Systems. The FAP proteins and their homologous were diluted to a concentration of 2 μg/mL into acetate buffer pH 5.5, then immobilized onto a CM5 sensorchip (Cytiva, BR-1005-30) to reach a response around 2000 R U. The running buffer HBS-EP+pH 7.6 (20× from Teknova CAT. No: H8022) contained 10 mM HEPES pH 7.6, 150 mM NaCl, 3 mM EDTA, 0.05% Tween20 and 2% DMSO. Experiments were carried out at 25° C. using a flow rate of 30 μL/min. Compounds were tested in single cycle kinetic mode at 8 different concentrations. Curve fitting was performed using the Biacore™ 8K evaluation software. The sensorgrams were fitted by applying a 1:1 binding model to calculate kinetic rate constants and equilibrium dissociation constants (KD).
For this assay, the setup had the same conditions (flow rate, running buffer, peptide dilution) as described above for the CM5 method. The oligo CAP reagent obtained in the CAPture Kit (Ref. 28920234) was 1/5 diluted into running buffer and used with a contact time of 300 s at a flow rate of 2 μL/min. The human and mouse FAP constructs described above were used (from AcroBiosystems or produced in house). The FAP proteins were diluted to a concentration of 2 μg/mL into acetate pH 5.5, 0.05% Tween20 and used with a contact time of 600 s at a flow rate of 10 μL/min. The peptides were tested with an association time of 280 s followed by a dissociation time of 3000 s at a flow rate of 30 μL/min. The regeneration was done using the regeneration solution (8 M guanidine-HCl, 1 M NaOH) as obtained with a contact time of 270 s at a flow rate of 10 μL/min. […] The compounds marked with an asterisk were tested against human and mouse DDP4.

Experiment [2] addresses T2, mouse FAP. The experiment is described as follows: Enzymatic FAP competition assay (Z-Gly-Pro-AMC fluorescence), mouse FAP. It counts as biochemical. To be noted: read-out: m. FAP, Enz., IC50. The protocol:
as §1

Starred links: 1 amine or outer side, 2 acyl side, 3 side chain; linkers in the order of their positions; H or OH if unused. Non-standard residues stand in square brackets, D forms with d. Residues, ends and D or L forms follow the SMILES beside them. Groups on a side chain read outwards from the residue. Primed or numbered codes have the meaning given here. *: point of attachment. F4(amGlyDOTALu) = lutetium complex of (S)-2,2',2''-(10-(2-((2-((4-(2-amino-2-carboxyethyl)benzyl)amino)-2-oxoethyl)amino)-2-oxoethyl)-1,4,7,10-tetraazacyclododecane-1,4,7-triyl)triacetic acid (Phe with 4-aminomethyl-Gly-DOTA-Lu), O=C([O-])CN1CCN(CC(=O)[O-])CCN(CC(=O)NCC(=O)NCc2ccc(C[C@H](N[*:1])C(=O)[*:2])cc2)CCN(CC(=O)[O-])CC1.[Lu+3]; F(4OEtNHDOTA-Lu) = lutetium complex of (S)-2,2',2''-(10-(2-((2-(4-(2-amino-2-carboxyethyl)phenoxy)ethyl)amino)-2-oxoethyl)-1,4,7,10-tetraazacyclododecane-1,4,7-triyl)triacetic acid (Phe with 4-O-ethylamino-DOTA-Lu), O=C([O-])CN1CCN(CC(=O)[O-])CCN(CC(=O)NCCOc2ccc(C[C@H](N[*:1])C(=O)[*:2])cc2)CCN(CC(=O)[O-])CC1.[Lu+3]; F(4OEtNHDOTA-Ga) = gallium complex of (S)-2,2',2''-(10-(2-((2-(4-(2-amino-2-carboxyethyl)phenoxy)ethyl)amino)-2-oxoethyl)-1,4,7,10-tetraazacyclododecane-1,4,7-triyl)triacetic acid (Phe with 4-O-ethylamino-DOTA-Ga), O=C([O-])CN1CCN(CC(=O)[O-])CCN(CC(=O)NCCOc2ccc(C[C@H](N[*:1])C(=O)[*:2])cc2)CCN(CC(=O)[O-])CC1.[Ga+3]; COpipzaa″ = 4-(carboxymethyl)piperazine-1-carbonyl on Lys N6, O=C(O)CN1CCN(C(=O)*)CC1; AAZTA5 = O=C(O)CN1CCN(CC(=O)O)CC(CCCCC(=O)*)(N(CC(=O)O)CC(=O)O)C1; Phe(4-CH2NH2) = NCc1ccc(C[C@H](N)C(=O)O)cc1; Piperazinyl(4-CH2COOH) = O=C(O)CN1CCN(*)CC1; NMeF = CN[C@@H](Cc1ccccc1)C(=O)O; Ahp(2) = CCCCC[C@H](N)C(=O)O; hSer = N[C@@H](CCO)C(=O)O; AEEA = NCCOCCOCC(=O)O; CO = O=C([*:1])[*:2]; Propyl = CCC*

By IC50 is commonly meant the concentration needed to halve the response being measured. As a reminder, the Kd is the concentration at which binding is half-saturated. Higher therefore signals weaker binding. Take `CCCOCC[C@@H]1NC(=O)[C@H](Cc2ccc(CNC(=O)COCCOCCNC(=O)CCCCC3(N(CC(=O)O)CC(=O)O)CN(CC(=O)O)CCN(CC(=O)O)C3)cc2)NC(=O)[C@H](Cc2ccccc2)N(C)C(=O)CNC(=O)CNC(=O)[C@H]2CCCN2C(=O)[C@H](CC(=O)O)NC(=O)[C@H](CCCCNC(=O)N2CCN(CC(=O)O)CC2)NC(=O)CNC(=O)[C@H](Cc2c[nH]c3ccccc23)NC1=O` [Example B31, Gly-Gly-NMePhe-F(4amPEG2NHAAZTA)-hS(Pr)-Trp-Gly-K(COpipzaa)-Asp-D-Pro] (cyclo(D[dP]GG[NMeF][Phe(4-CH2NH2)]([AEEA-AAZTA5])[hSer](Propyl)WGK([CO-Piperazinyl(4-CH2COOH)]))): the IC50 came to 30 pM on human FAP and 100 pM on mouse FAP [2]. This molecule came in with a dissociation constant (Kd) on mouse FAP [1] of 250 pM.

As for “Gly-Gly-NMePhe-F(4OEtNHDOTA-Ga)-Ahp-Trp-Gly-Tyr-Asp-D-Pro (cyclo(GG[NMeF][F(4OEtNHDOTA-Ga)][Ahp(2)]WGYD[dP]); also: Ga complex of DOTA) [Example C51]”, the IC50 is 30 pM with human FAP and 58 pM with mouse FAP [2]. In the experiment with mouse FAP [1], this molecule came in with an equilibrium dissociation constant (Kd) of 26 pM.

In the case of “K(COpipzaa)-Gly-NMePhe-F(4OEtNHDOTA-Lu)-Ahp-Trp-Gly-Tyr-Asp-D-Pro (cyclo(K(COpipzaa″)G[NMeF][F(4OEtNHDOTA-Lu)][Ahp(2)]WGYD[dP]); also: Lu complex) [Example C25]”, the results for the IC50 in the experiment with human FAP and with mouse FAP [2] were 98 pM and 350 pM, respectively. This molecule gave a Kd in the experiment with mouse FAP [1] of 340 pM.

As to “Gly-Gly-NMePhe-F4(amGlyDOTALu)-Ahp-Trp-Gly-Tyr-Asp-D-Pro (cyclo(GG[NMeF][F4(amGlyDOTALu)][Ahp(2)]WGYD[dP]); also: Lu complex) [Example C9]”, the IC50 with human FAP came to 10 pM; with mouse FAP [2], 24 pM. Also, the Kd with mouse FAP [1] is 32 pM.
